The source of these data is patent US20210061908A1 (IOMX THERAPEUTICS, published 2021).

For orientation: EC50 means the midpoint of the concentration-response curve. For orientation: Kd means a measure of binding affinity in units of concentration. High values mean weaker binding, low ones tighter binding. One may read the EC50 (read off the curve) as the concentration needed to bring the measured effect to its halfway point.

B1: human IGSF11 (VSIG3) expressed on the surface of cells (receptor)
chain: LEVSESPGSIQVARGQPAVLPCTFTTSAALINLNVIWMVTPLSNANQPEQVILYQGGQMFDGAPRFHGRVGFTGTMPATNVSIFINNTQLSDTGTYQCLVNNLPDIGGRNIGVTGLTVLVPPSAPHCQIQGSQDIGSDVILLCSSEEGIPRPTYLWEKLDNTLKLPPTATQDQVQGTVTIRNISALSSGLYQCVASNAIGTSTCLLDLQVISPQPRNIGLIAGAIGTGAVIIIFCIALILGAFFYWRSKNKEEEEEEIPNEIREDDLPPKCSSAKAFHTEISSSDNNTLTSSNAYNSRYWSNNPKVHRNTESVSHFSDLGQSFSFHSGNANIPSIYANGTHLVPGQHKTLVVTANRGSSPQVMSRSNGSVSRKPRPPHTHSYTISHATLERIGAVPVMVPAQSRAGSLV
notes: one molecule for all cell lines; the cell line is named under assay; also called IGSF11-expressing cells; HEK-OE

In assay [1] the target is T1, A-015 (scFv-Fc format, mouse IgG2A Fc).
T1 construct: scFv genetically fused to mouse IgG2A Fc, expressed in HEK293; also called scFv-Fc-format of antibody A-015; anti-IGSF11 scFv-Fc (mouse IgG2A)
Kind of assay: FACS on CD14-gated monocytes from PBMC of healthy donor A, 30 min at 4 C, fluorescently labelled secondary antibody.

Assay [2] concerns the target B1. Kind of assay: FACS, IgG1 format, DMS 273 cells. In general terms: In flow cytometry, cells or beads pass a laser one at a time.
Assay [3] concerns the target T2, IGSF11 (VSIG3), construct used in SPR and BLI not stated (UniProt Q5DX21 23-241, limits assumed).
T2 sequence (looked up): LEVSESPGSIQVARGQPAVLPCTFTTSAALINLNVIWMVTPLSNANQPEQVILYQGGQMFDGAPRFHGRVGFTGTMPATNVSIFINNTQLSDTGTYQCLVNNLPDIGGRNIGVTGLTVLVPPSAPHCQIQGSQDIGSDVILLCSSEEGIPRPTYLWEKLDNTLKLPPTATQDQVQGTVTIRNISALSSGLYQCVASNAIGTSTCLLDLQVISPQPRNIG
As to the kind of experiment: SPR (Biacore), chain-swapped IgG1; IGSF11 construct not stated. (In general: In SPR one partner is held on a chip, and binding of the other changes the refractive index at the surface.)

Assay [4] has as its target B1. As to the kind of experiment: FACS, IgG1 format, recombinant HEK cells expressing IGSF11 (HEK-OE).
Assay [5] concerns the target B1. As to the kind of experiment: FACS on DMS 273 cells treated with scrambled control siRNA (SC).
In assay [6] the target is B1. Kind of assay: FACS on M579-A2-luc cells treated with scrambled control siRNA (SC).
For assay [7], the target named is CL-11 (C). Kind of assay: FACS on CL-11 cells (do not express IGSF11; negative cell line) treated with IGSF11 siRNA (KD).
Assay [8] deals with B1. As to the kind of experiment: FACS on DMS 273 cells treated with IGSF11 siRNA (KD: target knocked down, specificity control).
Assay [9] concerns the target B1. As to the kind of experiment: FACS on M579-A2-luc cells treated with IGSF11 siRNA (KD: target knocked down, specificity control).
Assay [10] concerns the target CL-11 (C). Kind of assay: FACS on CL-11 cells (do not express IGSF11; negative cell line) treated with scrambled control siRNA (SC).
Assay [11] deals with T3, extracellular domain (ECD) of human IGSF11 (VSIG3), HIS-tagged (human, UniProt Q5DX21 23-241, biotinylated in the ELISA of Example 4 (site not stated)).
T3 construct: also called HIS-IGSF11; IGSF11-HIS; not shown: HIS6 tag
T3 sequence: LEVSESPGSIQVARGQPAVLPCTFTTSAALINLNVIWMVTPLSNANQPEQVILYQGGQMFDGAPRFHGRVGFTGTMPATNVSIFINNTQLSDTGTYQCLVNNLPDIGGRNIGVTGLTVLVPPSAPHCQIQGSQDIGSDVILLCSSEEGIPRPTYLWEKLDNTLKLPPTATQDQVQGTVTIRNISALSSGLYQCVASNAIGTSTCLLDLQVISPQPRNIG
As to the kind of experiment: ELISA: IGSF11-HIS coated, IgG1 antibody titrated, anti-human antibody-HRP and TMB; X-axis nM and Y-axis absorbance per legend paragraph 30 [B]. (An ELISA detects its analyte on a solid surface through an enzyme-linked reagent.)

Assay [12] deals with T3, extracellular domain (ECD) of human …. As to the kind of experiment: blocking ELISA (Example 5): IgG titrated and pre-incubated with 200 nM his-tagged IGSF11 ECD, complexes added to immobilised VSIR-Fc, bound IGSF11 detected with anti-hexahistidine-HRP; blocked ligand: VSIR-Fc [B].
In assay [13] the target is T2, IGSF11 (VSIG3), construct used in SPR …. Kind of assay: BLI (Octet), IgG1 format; IGSF11 construct not stated.
Assay [14] has the same target. As to the kind of experiment: SPR (Biacore), IgG1 format; IGSF11 construct not stated.
Assay [15] addresses T3, extracellular domain (ECD) of human …. As to the kind of experiment: ELISA, coated IGSF11-HIS, IgG1 format; EC50 grade (* >1 nM, ** 0.05-1 nM, *** 0.02-0.05 nM, **** <0.02 nM).
Assay [16] has the same target. Kind of assay: ELISA: IGSF11-HIS coated, IgG1 antibody titrated, anti-human antibody-HRP and TMB; X-axis nM and Y-axis absorbance per legend paragraph 30.
For assay [17] the target is unchanged. Kind of assay: blocking ELISA (Example 5): IgG titrated and pre-incubated with 200 nM his-tagged IGSF11 ECD, complexes added to immobilised VSIR-Fc, bound IGSF11 detected with anti-hexahistidine-HRP; blocked ligand: VSIR-Fc.

T1 sequence (VH, as listed by the source, chain 1 of 2): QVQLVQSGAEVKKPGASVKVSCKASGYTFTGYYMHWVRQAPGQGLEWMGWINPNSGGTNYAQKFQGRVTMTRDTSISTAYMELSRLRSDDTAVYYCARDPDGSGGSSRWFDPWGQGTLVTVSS
T1 sequence (VL, as listed by the source, chain 2 of 2): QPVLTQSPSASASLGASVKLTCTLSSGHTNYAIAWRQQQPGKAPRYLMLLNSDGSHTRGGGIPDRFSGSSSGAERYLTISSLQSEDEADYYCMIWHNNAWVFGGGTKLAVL

On to B1, for which the binding result in assay [1] is given as “binds”.

B2: B-002 (chain-swapped, human IgG1 format) (antibody, V domains shown)
VH: EVQLVESGGGLIQPGGSLRLSCAASGFTVSSNYMSWVRQAPGKGLEWVSVIYSGGSTYYADSVKGRFTISRDNSKNTLYLQMNSLRAEDTAVYYCARGNPYYYGDLQVNFDYWGQGTLVTVSS
VL: QAVVTQEPSLTVSPGGTVTLTCASSTGAVTSGYYPNWFQQKPGQAPRALIYSTSNKHSWTPARFSGSLLGGKAALTLSGVQPEDEAEYYCLLYYGGAWVFGGGTKLTVL
notes: VH of A-006 with VL of A-012; IgG1 format; also called B2; Chains-B-002
With B2, the EC50 was more than 50 nM in assay [2] and 10 to 50 nM in assay [4]. In addition, the Kd in [3] lay in the range of 100 to 250 nM. In addition, the percentage binding worked out at 80.1% in assay [5]; 70.7% in [6]; 4.54% in the assay with CL-11 (C) [7]; 8.68% in assay [8]; 2.77% in assay [9]; 3% in the assay with CL-11 (C) [10]. Moreover, the “EC50 (read off the curve)” value in assay [11] is approximately 0.01 nM. For the same molecule, the “IC50 (read off the curve)” value in assay [12] is approximately 4 nM.

B3: B-004 (chain-swapped, human IgG1 format) (antibody, V domains shown)
VH: EVQLLESGGGLIQPGGSLRLSCAVSGFTVSSNYMSWVRQAPGKGLEWVSVIYSGGSTYYADSVKGRFTISRDNSKNTLYLQMNSLRAEDTAVYYCARGNPYYYGDLQVNFDYWGQGTLVTVSS
VL: QAVVTQEPSLTVSPGGTVTLTCASSTGAVTSGYYPNWFQQKPGQAPRPLIYSTSNKHSWTPARFSGSLLGGKAALTLSGVQPDDEAEYYCLLYYGGDWVFGGGTKLTVL
notes: VH of A-012 with VL of A-006; IgG1 format; also called B4; Chains-B-004
For B3, the “EC50 (read off the curve)” value in assay [11] is approximately 0.02 nM. In addition, in [12], the “IC50 (read off the curve)” value was approximately 5 nM.

B4: A-012 (human IgG1 format) (antibody, V domains shown)
VH: EVQLLESGGGLIQPGGSLRLSCAVSGFTVSSNYMSWVRQAPGKGLEWVSVIYSGGSTYYADSVKGRFTISRDNSKNTLYLQMNSLRAEDTAVYYCARGNPYYYGDLQVNFDYWGQGTLVTVSS
VL: QAVVTQEPSLTVSPGGTVTLTCASSTGAVTSGYYPNWFQQKPGQAPRALIYSTSNKHSWTPARFSGSLLGGKAALTLSGVQPEDEAEYYCLLYYGGAWVFGGGTKLTVL
notes: human IgG1 format
As to B4, the EC50 was 10 to 50 nM in [2], 10 to 50 nM in assay [4] and 0.02 to 0.05 nM in assay [15]. Besides, the values for the Kd in assay [13] and in [14] were 1 to 10 nM and 250 to 500 nM, respectively. In addition, the percentage binding in assay [5] was found to be 75.8%; in assay [6], 65.4%; with CL-11 (C) [7], 3.93%; in [8], 4.77%; in assay [9] it was 2.35%; with CL-11 (C) [10] it was 5.11%. The “EC50 (read off the curve)” value in assay [16] was approximately 0.008 nM. In addition, the “IC50 (read off the curve)” value in [17] was approximately 2 nM.

B5: A-006 (human IgG1 format) (antibody, V domains shown)
VH: EVQLVESGGGLIQPGGSLRLSCAASGFTVSSNYMSWVRQAPGKGLEWVSVIYSGGSTYYADSVKGRFTISRDNSKNTLYLQMNSLRAEDTAVYYCARGNPYYYGDLQVNFDYWGQGTLVTVSS
VL: QAVVTQEPSLTVSPGGTVTLTCASSTGAVTSGYYPNWFQQKPGQAPRPLIYSTSNKHSWTPARFSGSLLGGKAALTLSGVQPDDEAEYYCLLYYGGDWVFGGGTKLTVL
notes: human IgG1 format
Consider B5, for which the figures for the concentration for a half-maximal effect (EC50) in assay [2], in assay [4] and in assay [15] were more than 50 nM, 10 to 50 nM and less than 0.02 nM, respectively. Further, the Kd was in the range of 1 to 10 nM in assay [13] and 250 to 500 nM in assay [14]. Besides, the percentage binding turned out to be 81.1% in assay [5]; 75.3% in assay [6]; 3.04% with CL-11 (C) [7]; 5.72% in [8]; 2.59% in [9]; 2.31% with CL-11 (C) [10].

B6: B-001 (chain-swapped, human IgG1 format) (antibody, V domains shown)
VH: EVQLLESGGGLIQPGGSLRLSCAVSGFTVSSNYMSWVRQAPGKGLEWVSVIYSGGSTYYADSVKGRFTISRDNSKNTLYLQMNSLRAEDTAVYYCARGNPYYYGDLQVNFDYWGQGTLVTVSS
VL: QAVVTQEPSLTVSPGGTVTLTCASSTGAVTSAYYPNWFQQKPGQAPRALIYSTSNKHSWTPARFSGSLLGGKAALTLSGVQPEDEADYYCLLYYGGAWVFGGGTKLTVL
notes: VH of A-012 with VL of A-013; IgG1 format; also called B1; Chains-B-001
B6: the Kd in assay [3] was in the range of 250 to 500 nM. Also, the EC50 in [4] fell in the range of 10 to 50 nM. Besides, the “IC50 (read off the curve)” value in assay [17] was approximately 2 nM.
